# Measured values reported in the supplement of paper PMC9112550, “Optimization of the antimicrobial peptide Bac7 by deep mutational scanning” (BMC Biology, 2022).
# Tested on: Escherichia coli TOP10
# Experiment: shrunken log2 fold change of peptide-encoding DNA abundance (4.5 h post-induction vs induction); higher = less antimicrobial activity (less host growth inhibition)
# Conditions: time post-induction: 4.5 h; library: site-saturation at positions 5, 18, 19, 20
# 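Also: peptides expressed intracellularly from a pBAD plasmid library in pooled LB shake-flask culture, induced with 0.3% L-arabinose, DNA abundance read by NGS, three biological replicates, DESeq2 with apeglm shrinkage.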
row,Sequence,shrunken log2 fold change
1,RRIRYRPPRLPRPRPRPAWIPRP,-0.259
2,RRIRTRPPRLPRPRPRPEELPRP,0.0343
3,RRIRSRPPRLPRPRPRPQNDPRP,-0.13
4,RRIRERPPRLPRPRPRPWVFPRP,-0.0105
5,RRIRYRPPRLPRPRPRPLEFPRP,-0.89
6,RRIRMRPPRLPRPRPRPMKGPRP,0.235
7,RRIRKRPPRLPRPRPRPFVQPRP,0.034
8,RRIRFRPPRLPRPRPRPARIPRP,-0.0549
9,RRIRNRPPRLPRPRPRPFYKPRP,-0.575
10,RRIRLRPPRLPRPRPRPDMFPRP,-0.218
11,RRIRDRPPRLPRPRPRPFLYPRP,1.81
12,RRIRERPPRLPRPRPRPKWMPRP,-0.0884
13,RRIRIRPPRLPRPRPRPEIWPRP,-0.18
14,RRIRFRPPRLPRPRPRPVGNPRP,0.294
15,RRIRQRPPRLPRPRPRPPYLPRP,-0.289
16,RRIRGRPPRLPRPRPRPRWHPRP,0.522
17,RRIRQRPPRLPRPRPRPEHSPRP,-0.0123
18,RRIRIRPPRLPRPRPRPAPAPRP,0.31
19,RRIRRRPPRLPRPRPRPAYAPRP,-0.0409
20,RRIRMRPPRLPRPRPRPFVLPRP,-0.691
21,RRIRPRPPRLPRPRPRPWQRPRP,-0.0107
22,RRIRWRPPRLPRPRPRPHETPRP,0.126
23,RRIRLRPPRLPRPRPRPLFCPRP,-0.142
24,RRIRPRPPRLPRPRPRPWEDPRP,0.00408
25,RRIRHRPPRLPRPRPRPTVLPRP,-0.109

row,Sequence,shrunken log2 fold change
1,RRIRHRPPRLPRPRPRPSRGPRP,-0.0716
2,RRIRGRPPRLPRPRPRPRMQPRP,0.494
3,RRIRWRPPRLPRPRPRPANRPRP,0.0566
4,RRIRCRPPRLPRPRPRPLEIPRP,-0.164
5,RRIRLRPPRLPRPRPRPNINPRP,-0.686
6,RRIRFRPPRLPRPRPRPEHMPRP,0.0146
7,RRIRHRPPRLPRPRPRPAYQPRP,-0.0802
8,RRIRDRPPRLPRPRPRPGFGPRP,0.264
9,RRIRVRPPRLPRPRPRPCKDPRP,-0.0644
10,RRIRYRPPRLPRPRPRPLMIPRP,-1.73
11,RRIRYRPPRLPRPRPRPAAYPRP,-0.387
12,RRIRTRPPRLPRPRPRPCAVPRP,-0.262
13,RRIRWRPPRLPRPRPRPRPRPRP,0.974
14,RRIRQRPPRLPRPRPRPTQGPRP,2.34
15,RRIRHRPPRLPRPRPRPYHEPRP,-0.0135
16,RRIRQRPPRLPRPRPRPNDSPRP,-0.449
17,RRIRYRPPRLPRPRPRPTNNPRP,-1.14
18,RRIRCRPPRLPRPRPRPAPWPRP,0.438
19,RRIRNRPPRLPRPRPRPPVDPRP,0.36
20,RRIRNRPPRLPRPRPRPYAHPRP,-0.176
21,RRIRIRPPRLPRPRPRPKITPRP,-0.83
22,RRIRIRPPRLPRPRPRPWPHPRP,-0.394
23,RRIRERPPRLPRPRPRPTSSPRP,-0.303
24,RRIRDRPPRLPRPRPRPWHRPRP,-0.017
25,RRIRKRPPRLPRPRPRPKYTPRP,-0.113

row,Sequence,shrunken log2 fold change
1,RRIRGRPPRLPRPRPRPQRTPRP,0.853
2,RRIRSRPPRLPRPRPRPFVRPRP,0.0631
3,RRIRHRPPRLPRPRPRPTYMPRP,-0.435
4,RRIRERPPRLPRPRPRPANQPRP,0.0465
5,RRIRERPPRLPRPRPRPNESPRP,0.0842
6,RRIRTRPPRLPRPRPRPVWGPRP,0.368
7,RRIRWRPPRLPRPRPRPYIIPRP,-1.11
8,RRIRDRPPRLPRPRPRPPDHPRP,0.527
9,RRIRLRPPRLPRPRPRPYDCPRP,0.0192
10,RRIRLRPPRLPRPRPRPIWFPRP,0.0419
11,RRIRGRPPRLPRPRPRPQLMPRP,0.509
12,RRIRTRPPRLPRPRPRPMEYPRP,-0.0122
13,RRIRWRPPRLPRPRPRPNIMPRP,-0.296
14,RRIRERPPRLPRPRPRPGHMPRP,-0.247
15,RRIRYRPPRLPRPRPRPFRHPRP,-0.16
16,RRIRDRPPRLPRPRPRPFGHPRP,-0.138
17,RRIRMRPPRLPRPRPRPIGPPRP,0.069
18,RRIRKRPPRLPRPRPRPTTSPRP,0.321
19,RRIRTRPPRLPRPRPRPVKFPRP,-0.0819
20,RRIRSRPPRLPRPRPRPYMNPRP,-0.479
21,RRIRTRPPRLPRPRPRPGISPRP,0.0832
22,RRIRERPPRLPRPRPRPTRTPRP,0.374
23,RRIRQRPPRLPRPRPRPCFAPRP,0.0874
24,RRIRTRPPRLPRPRPRPLACPRP,0.0365
25,RRIRHRPPRLPRPRPRPEYLPRP,0.0871

row,Sequence,shrunken log2 fold change
1,RRIRNRPPRLPRPRPRPTIRPRP,-0.0347
2,RRIRSRPPRLPRPRPRPKHPPRP,-0.194
3,RRIRLRPPRLPRPRPRPFFAPRP,0.169
4,RRIRPRPPRLPRPRPRPRKDPRP,0.173
5,RRIRQRPPRLPRPRPRPYHPPRP,-0.531
6,RRIRGRPPRLPRPRPRPTTWPRP,0.521
7,RRIRFRPPRLPRPRPRPMITPRP,-0.33
8,RRIRGRPPRLPRPRPRPQWCPRP,0.216
9,RRIRWRPPRLPRPRPRPMMEPRP,0.134
10,RRIRDRPPRLPRPRPRPVNEPRP,0.0314
11,RRIRWRPPRLPRPRPRPMTNPRP,-0.0531
12,RRIRWRPPRLPRPRPRPADEPRP,0.033
13,RRIRWRPPRLPRPRPRPSHFPRP,-0.151
14,RRIRDRPPRLPRPRPRPHCPPRP,-0.191
15,RRIRFRPPRLPRPRPRPDVEPRP,0.00816
16,RRIRERPPRLPRPRPRPITDPRP,-0.00102
17,RRIRIRPPRLPRPRPRPAVDPRP,-0.0902
18,RRIRFRPPRLPRPRPRPPQTPRP,0.473
19,RRIRVRPPRLPRPRPRPGTMPRP,-0.122
20,RRIRIRPPRLPRPRPRPFQDPRP,0.0408
21,RRIRGRPPRLPRPRPRPVQDPRP,0.197
22,RRIRYRPPRLPRPRPRPMMTPRP,-0.111
23,RRIRNRPPRLPRPRPRPAMTPRP,0.157
24,RRIRNRPPRLPRPRPRPVEAPRP,0.277
25,RRIRARPPRLPRPRPRPPMPPRP,0.405

row,Sequence,shrunken log2 fold change
1,RRIRGRPPRLPRPRPRPVFVPRP,0.324
2,RRIRVRPPRLPRPRPRPGLVPRP,0.807
3,RRIRYRPPRLPRPRPRPCAGPRP,-0.0602
4,RRIRWRPPRLPRPRPRPSTAPRP,0.316
5,RRIRTRPPRLPRPRPRPHGEPRP,0.16
6,RRIRERPPRLPRPRPRPHYYPRP,-0.83
7,RRIRYRPPRLPRPRPRPKKGPRP,-0.444
8,RRIRARPPRLPRPRPRPMTQPRP,0.249
9,RRIRIRPPRLPRPRPRPAEEPRP,-0.084
10,RRIRIRPPRLPRPRPRPPAKPRP,0.309
11,RRIRPRPPRLPRPRPRPVYWPRP,-0.139
12,RRIRNRPPRLPRPRPRPCTNPRP,0.00408
13,RRIRVRPPRLPRPRPRPADNPRP,-0.0365
14,RRIRSRPPRLPRPRPRPSPWPRP,-0.0643
15,RRIRDRPPRLPRPRPRPNYIPRP,-1.03
16,RRIRDRPPRLPRPRPRPYRYPRP,-0.0188
17,RRIRERPPRLPRPRPRPDPHPRP,-0.011
18,RRIRHRPPRLPRPRPRPWSVPRP,-0.125
19,RRIRGRPPRLPRPRPRPHGGPRP,0.631
20,RRIRERPPRLPRPRPRPAINPRP,-0.257
21,RRIRPRPPRLPRPRPRPCPLPRP,-0.208
22,RRIRNRPPRLPRPRPRPTRDPRP,0.386
23,RRIRARPPRLPRPRPRPTIAPRP,0.687
24,RRIRRRPPRLPRPRPRPAVMPRP,0.0975
25,RRIRDRPPRLPRPRPRPLGRPRP,0.0897
